Reference: publication PMC3975076, “High-throughput binding characterization of RNA aptamer selections using a microplate-based multiplex microcolumn device”

T1: UBLCP1 (UniProt Q8WVY7)
T1 sequence: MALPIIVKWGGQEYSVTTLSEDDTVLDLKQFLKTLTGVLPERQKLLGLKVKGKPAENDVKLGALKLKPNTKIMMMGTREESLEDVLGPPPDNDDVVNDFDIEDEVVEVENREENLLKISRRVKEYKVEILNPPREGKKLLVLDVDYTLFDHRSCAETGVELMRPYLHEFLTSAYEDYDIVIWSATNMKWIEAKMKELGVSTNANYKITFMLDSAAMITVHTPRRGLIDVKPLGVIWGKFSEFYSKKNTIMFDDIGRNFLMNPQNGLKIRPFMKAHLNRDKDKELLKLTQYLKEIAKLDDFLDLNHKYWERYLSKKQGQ

T2: NELF-E (Drosophila, UniProt P92204 1-280)
T2 sequence: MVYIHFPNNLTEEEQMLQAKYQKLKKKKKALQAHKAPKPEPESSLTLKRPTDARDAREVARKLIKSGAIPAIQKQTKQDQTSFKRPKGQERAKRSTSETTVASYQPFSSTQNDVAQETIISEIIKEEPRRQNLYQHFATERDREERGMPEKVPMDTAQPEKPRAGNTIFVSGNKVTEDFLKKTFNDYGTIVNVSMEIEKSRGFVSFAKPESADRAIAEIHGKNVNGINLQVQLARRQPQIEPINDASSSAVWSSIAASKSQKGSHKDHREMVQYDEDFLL


What was measured:
UBLCP1 = target: T1, UBLCP1; assay: affinity microcolumn + qPCR; details: value is average over all 7 other targets; Binding buffer (composition, pH and temperature not in material) with 10 ug/mL yeast tRNA; serial: 4.75 nM N70 library + 50 pM each aptamer/BBS, 1 mL, protein …
GFP = GFP (UniProt P42212); assay: affinity microcolumn + qPCR; details: GFP 0.6 ug/uL resin; serial; Binding buffer (composition, pH and temperature not in material) with 10 ug/mL yeast tRNA; serial: 4.75 nM N70 library + 50 pM each aptamer/BBS, 1 mL, protein …
NELF-E = target: T2, NELF-E; assay: affinity microcolumn + qPCR; NELF-E 0.6 ug/uL resin; serial; Binding buffer (composition, pH and temperature not in material) with 10 ug/mL yeast tRNA; serial: 4.75 nM N70 library + 50 pM each aptamer/BBS, 1 mL, protein 0.6 ug/uL resin; wash 3 mL at 300 uL/min; details: protein: recombinant; tags: His6

Molecule	binding signal (fold enrichment over N70 library) (UBLCP1)	binding signal (fold enrichment over N70 library) (GFP)	binding signal (NELF-E)
AGCUUCUGGACUGCGAUGGGAGCACGAAACGUCGUGGCGCAAUUGGGUGGGGAAAGUCCUUAAAAGAGGGCCACCACAGAAGCU [GFPapt (AP3-1)]	0.6	750	–
GGGAAUGGAUCCACAUCUACGAAUUCAAUCAAGUCCCCAGACUCAGCAACACUGGACAGCGAUAUGCAGAUAACCAAGACCAAUUCACUCCAGUUCACUGCAGACUUGACGAAGCUU [HSFapt]	2	–	–
GGGAAUGGAUCCACAUCUACGAAUUCCCAACGACUGCCGAGCGAGAUUACGCUUGAGCGCCCCACUGAGGAUGCCCACGGGCGAUUGGGGCACGGCUUCACUGCAGACUUGACGAAGCUU [NELFapt]	1.6	–	–
NELFapt (structured_RNA) RNA: GGGAAUGGAUCCACAUCUACGAAUUCCCAACGACUGCCGAGCGAGAUUACGCUUGAGCGCCCCACUGAGGAUGCCCACGGGCGAUUGGGGCACGGCUUCACUGCAGACUUGACGAAGCUU	–	–	262 fold enrichment over N70 library
